The assay has as its target WDR5 (WD (Trp-Asp) repeat domain 5) (UniProt P61964). The assay is described as follows: fluorescence polarisation.
As to AKA (peptide), the IC50 was above 300 µM and the Ki was above 65 µM.
For the substance ARC (peptide), the inhibitory constant (Ki) stood at 0.02 µM.
Consider ARE (peptide), for which the IC50 is above 100 µM.
On the same count and under the same terms, under ARF (peptide) stands 280 µM.
ARG (peptide) came in with an IC50 of 10.3 µM and a Ki of 2.2 µM.
The matching figures for ARL (peptide): 34 µM and 7.3 µM.
The substance ARS (peptide) gave a 50% inhibitory concentration (IC50) of 1.8 µM.
Still for that read-out and setting: the result for ART (peptide) reads 0.08 µM.
In turn, ARV (peptide) displayed an IC50 of 0.11 µM and a Ki of 0.02 µM.
For the substance Ac-ARA-NH2 (peptide), the IC50 is 0.54 µM and the inhibition constant Ki stood at 0.12 µM.
The matching figures for CRA (peptide): 1.83 µM and 0.4 µM.
The substance FRA (peptide) gave an IC50 of 3.1 µM.
Take GRA (peptide): the IC50 came out at 77.4 µM and the inhibition constant (Ki) amounted to 16.7 µM.
Substance HRA (peptide) yielded an IC50 of 1.7 µM.
LRA (peptide) registered an IC50 of 10.8 µM and a Ki of 2.3 µM.
The substance SRA (peptide) came in with a half-maximal inhibitory concentration (IC50) of 2.9 µM.
The same measure, in the same setting: the result for TRA (peptide) reads 2.9 µM.
Substance VRA (peptide) came in with an IC50 of 0.24 µM and a Ki of 0.05 µM.

Source of the values: PMC5180416.
